Experiment in all cases: co-IP
In assay [1] the target is endogenous dynein intermediate chain (DIC) of COS7 cells (African green monkey (endogenous in COS7)).
Another assay deals with Flag-CRMP4 (UniProt Q14195).
Assay [2] concerns the target endogenous mouse dynein intermediate chain (DIC) (mouse (endogenous in sciatic nerve and primary motor neurons)) (UniProt O88485).
Chain of UniProt O88485 (O88485 whole entry): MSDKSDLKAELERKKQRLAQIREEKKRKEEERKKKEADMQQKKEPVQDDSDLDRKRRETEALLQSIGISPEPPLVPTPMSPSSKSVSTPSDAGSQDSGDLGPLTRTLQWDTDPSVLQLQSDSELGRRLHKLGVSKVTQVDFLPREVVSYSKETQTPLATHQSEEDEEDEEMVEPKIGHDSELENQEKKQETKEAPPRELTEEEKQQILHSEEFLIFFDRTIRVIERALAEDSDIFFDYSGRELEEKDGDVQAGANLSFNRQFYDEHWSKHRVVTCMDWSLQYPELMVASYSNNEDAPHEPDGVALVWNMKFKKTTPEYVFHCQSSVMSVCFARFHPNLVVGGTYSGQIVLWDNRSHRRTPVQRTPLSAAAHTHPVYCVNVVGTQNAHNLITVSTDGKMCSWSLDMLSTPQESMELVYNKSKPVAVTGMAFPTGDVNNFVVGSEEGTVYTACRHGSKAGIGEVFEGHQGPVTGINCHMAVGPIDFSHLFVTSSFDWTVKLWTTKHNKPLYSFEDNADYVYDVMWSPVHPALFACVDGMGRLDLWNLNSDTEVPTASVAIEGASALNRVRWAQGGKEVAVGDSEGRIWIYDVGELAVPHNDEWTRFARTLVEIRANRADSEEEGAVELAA

Chain of Flag-CRMP4 (Q14195 whole entry): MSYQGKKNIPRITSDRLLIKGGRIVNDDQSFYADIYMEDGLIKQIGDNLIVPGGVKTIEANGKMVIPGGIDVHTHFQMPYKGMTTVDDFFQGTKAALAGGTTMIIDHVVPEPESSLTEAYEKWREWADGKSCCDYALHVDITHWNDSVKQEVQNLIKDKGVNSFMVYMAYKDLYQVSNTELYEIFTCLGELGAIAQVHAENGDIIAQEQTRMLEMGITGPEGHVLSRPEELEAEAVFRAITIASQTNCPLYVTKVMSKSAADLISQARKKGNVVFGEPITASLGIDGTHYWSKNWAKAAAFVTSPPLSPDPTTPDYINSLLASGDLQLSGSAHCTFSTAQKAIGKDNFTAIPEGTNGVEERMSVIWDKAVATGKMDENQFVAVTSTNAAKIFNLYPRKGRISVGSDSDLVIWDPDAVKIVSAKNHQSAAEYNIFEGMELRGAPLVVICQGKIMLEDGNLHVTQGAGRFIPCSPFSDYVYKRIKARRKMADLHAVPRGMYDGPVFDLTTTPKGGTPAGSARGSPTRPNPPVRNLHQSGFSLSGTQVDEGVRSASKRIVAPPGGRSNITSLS

“full-length GFP-CRMP4 (from UniProt Q14195 1-570) (natural protein)” displayed a CRMP4 band co-precipitated with DIC (densitometry, mean) in assay [1] of 1.47.
In the case of “CRMP4 (transfected together with AAV9-GFP or AAV9-GFP-50aa, Figure 4H) (from UniProt Q14195 1-570) (natural protein)”, in assay [1], the CRMP4 band normalised to DIC band (mean), cells with GFP-50aa amounted to 0.54 and the CRMP4 band normalised to DIC band (mean), control cells with GFP was found to be 1.
On to “dynactin (p150), endogenous in COS7 cells (natural protein)”, for which, in the assay with Flag-CRMP4, the dynactin band normalised to Flag-CRMP4 band (mean), no peptide (Fig 4E) worked out at 0.77; the dynactin band normalised to Flag-CRMP4 band (mean), no peptide (Fig 4G) stood at 1.92; the dynactin band normalised to Flag-CRMP4 band (mean), with peptide-1 was determined as 1.44; the dynactin band normalised to Flag-CRMP4 band (mean), with peptide-2 stood at 1.34. Besides, in the assay with Flag-CRMP4, the dynactin band normalised to Flag-CRMP4 band (mean), with peptide-3 stood at 1.8; the dynactin band normalised to Flag-CRMP4 band (mean), with peptide-4 worked out at 1.13; the dynactin band normalised to Flag-CRMP4 band (mean), with peptides 1-4 (Fig 4E) was 0.17.
In turn, “mutated Flag-CRMP4-I141V (from UniProt Q14195 1-570) (natural protein)” registered a CRMP4 band normalised to DIC band (mean) in assay [1] of 1.62.
In assay [2], “endogenous mouse CRMP4 (from UniProt Q62188 1-570) (natural protein)” showed a CRMP4 band normalised to DIC band (mean), SOD1G93A sciatic nerve of 1.48 and a CRMP4 band normalised to DIC band (mean), WT sciatic nerve of 0.28.
“Flag-CRMP4 (from UniProt Q14195 1-570) (natural protein)” gave a CRMP4 band normalised to DIC band (mean) in assay [1] of 1.
